Laboratory results taken from paper PMC10613254, “Mechanism of synergistic activation of Arp2/3 complex by cortactin and WASP-family proteins” (Nature Communications, 2023).

B1: Cort_(1-227) (domain or fragment)
chain: MWKASAGHAVSITQDDGGADDWETDPDFVNDVSEKEQRWGAKTVQGSGHQEHINIHKLRENVFQEHQTLKEKELETGPKASHGYGGKFGVEQDRMDRSAVGHEYQSKLSKHCSQVDSVRGFGGKFGVQMDRVDQSAVGFEYQGKTEKHASQKDYSSGFGGKYGVQADRVDKSAVGFDYQGKTEKHESQKDYSKGFGGKYGIDKDKVDKSAVGFEYQGKTEKHESQKD
notes: source: E. coli ArticExpress (DE3), purified (amylose, TEV cleavage, Ni-NTA, size exclusion)
B2: Cort_(1-76), cortactin N-terminal acidic domain (NTA, residues 1-76) (domain or fragment)
chain: MWKASAGHAVSITQDDGGADDWETDPDFVNDVSEKEQRWGAKTVQGSGHQEHINIHKLRENVFQEHQTLKEKELET
notes: mouse cortactin, UniProt Q60598, residues 1-76; the methods say mouse cDNA; Cloned between BamHI and EcoRI of pMAL-c6T; also called cortactin's N-terminal domain; source: E. coli ArticExpress (DE3), purified (amylose, TEV cleavage, Ni-NTA, size exclusion)
B3: Cort_(1-79/154-401) (domain or fragment)
chain: MWKASAGHAVSITQDDGGADDWETDPDFVNDVSEKEQRWGAKTVQGSGHQEHINIHKLRENVFQEHQTLKEKELETGPKYSSGFGGKYGVQADRVDKSAVGFDYQGKTEKHESQKDYSKGFGGKYGIDKDKVDKSAVGFEYQGKTEKHESQKDYVKGFGGKFGVQTDRQDKCALGWDHQEKLQLHESQKDYKTGFGGKFGVQSERQDSSAVGFDYKERLAKHESQQDYAKGFGGKYGVQKDRMDKNASTFEEVVQVPSAYQKTVPIEAVTSKTSNIRANFENLAKEREQEDRRKAEAERAQRMAKERQEQEEARRKLEEQARAKKQT
notes: mouse cortactin, UniProt Q60598, residues 1-79, joined directly to residues 154-401; mouse cortactin, UniProt Q60598, residues 154-401; Internal deletion of residues 80-153; fragments ligated through overhangs coding residues 77-79; source: E. coli ArticExpress (DE3), purified (amylose, TEV cleavage, Ni-NTA, size exclusion)
B4: Cort_(1-401) (domain or fragment)
chain: MWKASAGHAVSITQDDGGADDWETDPDFVNDVSEKEQRWGAKTVQGSGHQEHINIHKLRENVFQEHQTLKEKELETGPKASHGYGGKFGVEQDRMDRSAVGHEYQSKLSKHCSQVDSVRGFGGKFGVQMDRVDQSAVGFEYQGKTEKHASQKDYSSGFGGKYGVQADRVDKSAVGFDYQGKTEKHESQKDYSKGFGGKYGIDKDKVDKSAVGFEYQGKTEKHESQKDYVKGFGGKFGVQTDRQDKCALGWDHQEKLQLHESQKDYKTGFGGKFGVQSERQDSSAVGFDYKERLAKHESQQDYAKGFGGKYGVQKDRMDKNASTFEEVVQVPSAYQKTVPIEAVTSKTSNIRANFENLAKEREQEDRRKAEAERAQRMAKERQEQEEARRKLEEQARAKKQT
notes: mouse cortactin, UniProt Q60598, residues 1-401; source: E. coli ArticExpress (DE3), purified (amylose, TEV cleavage, Ni-NTA, size exclusion)

Experiments:
[1] = molecular target: F-actin (skeletal α-actin, polymerized) (rabbit, UniProt P68135 1-377); assay: co-sedimentation; increasing concentrations of cortactin constructs with constant F-actin (4 uM), ATP-supplemented KMEI buffer, 1 h at RT, 30 min at 278,800 g, SDS-PAGE densitometry; conditions: both partners purified
[2] = molecular target: Arp3 (subunit of bovine Arp2/3 complex) (bovine, UniProt P61157 1-418); assay: cryo-EM structure; Bovine Arp2/3 complex (9.0 uM) mixed with Cort_(1-76) (45 uM) in ATP-supplemented KMEI buffer (10 mM imidazole pH 7.0, 50 mM KCl, 2 mM MgCl2, 1 mM EGTA, 0.2 mM ATP), 0.0025% NP-40; conditions: both partners purified

Binder | binding result [1] | binding result [2]
B1 | binds | 
B2 |  | binds
B3 | binds | 
B4 | binds | 
